Source: patent US20240209100A1 (DIAGONAL THERAPEUTICS, published 2024)

T1: IL-18 receptor (IL-18Rα/IL-18Rβ) overexpressed on HEK-Blue IL-18 cells (Homo sapiens (Human), UniProt Q13478 19-541; O95256 20-599)
T1 sequence 1: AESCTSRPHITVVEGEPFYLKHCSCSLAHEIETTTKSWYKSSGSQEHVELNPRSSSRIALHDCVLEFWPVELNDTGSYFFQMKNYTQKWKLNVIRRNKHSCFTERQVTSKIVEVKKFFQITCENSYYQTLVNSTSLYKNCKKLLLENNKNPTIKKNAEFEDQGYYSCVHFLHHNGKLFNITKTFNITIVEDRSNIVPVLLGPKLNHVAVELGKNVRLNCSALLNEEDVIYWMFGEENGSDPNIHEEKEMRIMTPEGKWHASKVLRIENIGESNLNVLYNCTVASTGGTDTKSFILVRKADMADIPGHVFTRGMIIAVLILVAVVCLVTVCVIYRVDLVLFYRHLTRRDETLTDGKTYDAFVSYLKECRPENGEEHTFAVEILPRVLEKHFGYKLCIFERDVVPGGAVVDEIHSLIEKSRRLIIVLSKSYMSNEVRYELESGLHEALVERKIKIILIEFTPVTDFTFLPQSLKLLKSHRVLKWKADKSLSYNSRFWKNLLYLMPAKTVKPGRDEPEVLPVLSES
T1 sequence 2: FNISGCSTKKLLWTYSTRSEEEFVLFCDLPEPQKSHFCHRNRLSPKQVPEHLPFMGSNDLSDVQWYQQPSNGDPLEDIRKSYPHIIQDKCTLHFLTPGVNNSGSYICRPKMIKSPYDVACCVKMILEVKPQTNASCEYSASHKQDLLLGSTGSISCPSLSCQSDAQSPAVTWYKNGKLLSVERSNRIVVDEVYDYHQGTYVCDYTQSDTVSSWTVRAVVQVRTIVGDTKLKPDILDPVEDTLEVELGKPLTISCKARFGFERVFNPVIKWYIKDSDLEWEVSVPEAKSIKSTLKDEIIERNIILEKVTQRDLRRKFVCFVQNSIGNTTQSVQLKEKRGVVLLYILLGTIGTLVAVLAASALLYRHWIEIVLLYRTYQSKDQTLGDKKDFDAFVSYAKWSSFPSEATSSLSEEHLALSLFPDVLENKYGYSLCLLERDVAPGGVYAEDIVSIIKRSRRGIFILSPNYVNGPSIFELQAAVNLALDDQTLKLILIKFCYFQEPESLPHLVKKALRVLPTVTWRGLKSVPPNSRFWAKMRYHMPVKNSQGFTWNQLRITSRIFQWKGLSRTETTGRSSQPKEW


Molecular target: T1, IL-18 receptor (IL-18Rα/IL-18Rβ) …
Assay: cell-based or functional assay

| Binder | HEK-Blue IL-18: Abs 405 | HEK-Blue IL-18: Fold over Background |
| --- | --- | --- |
| DGL162 (bispecific antibody) heavy 1: QVQLVESGGGLVQAGGSLRLSCAASGRTFSKHAMGWFRQAPGKEREFVAAIDWSGGSTYYADSVKGRFTISRDNAKNTVYLQMDSLKPEDTAVYYCAADSYTDYAQLWLPELESEYDYWGQGTQVTVSSDKGPSVFPLAPEPKSSQVQLQESGGGLVQAGGSLKLSCQASGLTFKRNTMGWFRQAPGKEREFVAHFLWTGGETDYADAVKGRFTISRDNAKNTVYLQMNSLKPEDTAVYFCAANYAGYRIDGYQYWGQGTQVTVSSDKTHTCPPCPAPEAAGGPSVFLFPPKPKDTLMISRTPEVTCVVVDVSHEDPEVKFNWYVDGVEVHNAKTKPREEQYNSTYRVVSVLTVLHQDWLNGKEYKCKVSNKALPAPIEKTISKAKGQPREPQVCTLPPSRDELTKNQVSLSCAVKGFYPSDIAVEWESNGQPENNYKTTPPVLDSDGSFFLVSKLTVDKSRWQQGNVFSCSVMHEALHNHYTQKSLSLSPG heavy 2: not shown | 0.79 Abs | 6.6 fold |
| DGL167 (bispecific antibody) heavy 1: QVQLVESGGGLVQAGGSLRLSCAASGRTFSKHAMGWFRQAPGKEREFVAAIDWSGGSTYYADSVKGRFTISRDNAKNTVYLQMDSLKPEDTAVYYCAADSYTDYAQLWLPELESEYDYWGQGTQVTVSSGGGSQVQLQESGGGLVQAGGSLKLSCQASGLTFKRNTMGWFRQAPGKEREFVAHFLWTGGETDYADAVKGRFTISRDNAKNTVYLQMNSLKPEDTAVYFCAANYAGYRIDGYQYWGQGTQVTVSSDKTHTCPPCPAPEAAGGPSVFLFPPKPKDTLMISRTPEVTCVVVDVSHEDPEVKFNWYVDGVEVHNAKTKPREEQYNSTYRVVSVLTVLHQDWLNGKEYKCKVSNKALPAPIEKTISKAKGQPREPQVCTLPPSRDELTKNQVSLSCAVKGFYPSDIAVEWESNGQPENNYKTTPPVLDSDGSFFLVSKLTVDKSRWQQGNVFSCSVMHEALHNHYTQKSLSLSPG heavy 2: not shown | 0.66 Abs | 5.5 fold |
| DGL163 (bispecific antibody) heavy 1: QVQLVESGGGLVQAGGSLRLSCAASGRTFSSYNMGWFRQAPGKERESVAAISWSGGSSYYADSVKGRFTISRDNAKPTVYLQMNSLKPEDTAVYYCAADRDSEEWDGSSWFFKSDYWGQGTQVTVSSDKGPSVFPLAPEPKSSQVQLVESGGGLVQTGGPLRLSCAASGGTFSRYTMGWFRQAPGKEREYVAAISWRGSSIYYADAVKGRFTISRDSAKSTVYLQMNNLNSDDTAVYYCAADRTDLPRNAGEYGYWGQGTQVTVSSDKTHTCPPCPAPEAAGGPSVFLFPPKPKDTLMISRTPEVTCVVVDVSHEDPEVKFNWYVDGVEVHNAKTKPREEQYNSTYRVVSVLTVLHQDWLNGKEYKCKVSNKALPAPIEKTISKAKGQPREPQVCTLPPSRDELTKNQVSLSCAVKGFYPSDIAVEWESNGQPENNYKTTPPVLDSDGSFFLVSKLTVDKSRWQQGNVFSCSVMHEALHNHYTQKSLSLSPG heavy 2: not shown | 0.36 Abs | 3 fold |
| DGL164 (bispecific antibody) heavy 1: QVQLVESGGGLVQAGGSLRLSCAASGRTFSSYTMGWFRQAPGKEREFVAAISWSAGRTYYADSVKGRFTISRDNAKNTVYLQMNSLKPEDTAVYFCAAEEAPDWAPIDCSGYGCLSLYDYWGQGTQVTVSSDKGPSVFPLAPEPKSSQVQLVESGGGLVQAGGSLRLSCAASQTGFNMNRMGWYRQAPGKQRELVATITGGGSTTYADSVKGRFDISRGNVENNLYLQMNSLKPEDTAVYYCNALLFGRDYWGQGTQVTVSSDKTHTCPPCPAPEAAGGPSVFLFPPKPKDTLMISRTPEVTCVVVDVSHEDPEVKFNWYVDGVEVHNAKTKPREEQYNSTYRVVSVLTVLHQDWLNGKEYKCKVSNKALPAPIEKTISKAKGQPREPQVCTLPPSRDELTKNQVSLSCAVKGFYPSDIAVEWESNGQPENNYKTTPPVLDSDGSFFLVSKLTVDKSRWQQGNVFSCSVMHEALHNHYTQKSLSLSPG heavy 2: not shown | 0.28 Abs | 2.3 fold |
| DGL166 (bispecific antibody) heavy 1: EVQLVESGGGLVQPGGSLRLSCAASGFFLDDYVLGWFRQAPGKPREGVSCISSRGRYLNYAETVKGRFTISRSNAKNTVYLQMNNLEPEDTAVYYCAAVRRVSEVCKLAEDDFASWGQGTQVTVSSGGGSQVQLVESGGGLVQAGDSLRLSCVASERTFSSYTMGWFRQAPGKEREFTAALSWWNGGISTAYADSVKGRFTISRDNAKNTVYLQMNSLKTEDTALYYCAAARDRMPRADEYDYWGQGTQVTVSSDKTHTCPPCPAPEAAGGPSVFLFPPKPKDTLMISRTPEVTCVVVDVSHEDPEVKFNWYVDGVEVHNAKTKPREEQYNSTYRVVSVLTVLHQDWLNGKEYKCKVSNKALPAPIEKTISKAKGQPREPQVCTLPPSRDELTKNQVSLSCAVKGFYPSDIAVEWESNGQPENNYKTTPPVLDSDGSFFLVSKLTVDKSRWQQGNVFSCSVMHEALHNHYTQKSLSLSPG heavy 2: not shown | 0.12 Abs | 1 fold |
| DGL161 (bispecific antibody) heavy 1: EVQLVESGGGLVQPGGSLRLSCAASGFFLDDYVLGWFRQAPGKPREGVSCISSRGRYLNYAETVKGRFTISRSNAKNTVYLQMNNLEPEDTAVYYCAAVRRVSEVCKLAEDDFASWGQGTQVTVSSDKGPSVFPLAPEPKSSQVQLVESGGGLVQAGDSLRLSCVASERTFSSYTMGWFRQAPGKEREFTAALSWWNGGISTAYADSVKGRFTISRDNAKNTVYLQMNSLKTEDTALYYCAAARDRMPRADEYDYWGQGTQVTVSSDKTHTCPPCPAPEAAGGPSVFLFPPKPKDTLMISRTPEVTCVVVDVSHEDPEVKFNWYVDGVEVHNAKTKPREEQYNSTYRVVSVLTVLHQDWLNGKEYKCKVSNKALPAPIEKTISKAKGQPREPQVCTLPPSRDELTKNQVSLSCAVKGFYPSDIAVEWESNGQPENNYKTTPPVLDSDGSFFLVSKLTVDKSRWQQGNVFSCSVMHEALHNHYTQKSLSLSPG heavy 2: not shown | 0.19 Abs | 1.6 fold |
| DGL169 (bispecific antibody) heavy 1: QVQLVESGGGLVQAGGSLRLSCAASGRTFSSYTMGWFRQAPGKEREFVAAISWSAGRTYYADSVKGRFTISRDNAKNTVYLQMNSLKPEDTAVYFCAAEEAPDWAPIDCSGYGCLSLYDYWGQGTQVTVSSGGGSQVQLVESGGGLVQAGGSLRLSCAASQTGFNMNRMGWYRQAPGKQRELVATITGGGSTTYADSVKGRFDISRGNVENNLYLQMNSLKPEDTAVYYCNALLFGRDYWGQGTQVTVSSDKTHTCPPCPAPEAAGGPSVFLFPPKPKDTLMISRTPEVTCVVVDVSHEDPEVKFNWYVDGVEVHNAKTKPREEQYNSTYRVVSVLTVLHQDWLNGKEYKCKVSNKALPAPIEKTISKAKGQPREPQVCTLPPSRDELTKNQVSLSCAVKGFYPSDIAVEWESNGQPENNYKTTPPVLDSDGSFFLVSKLTVDKSRWQQGNVFSCSVMHEALHNHYTQKSLSLSPG heavy 2: not shown | 0.22 Abs | 1.8 fold |
| DGL165 (bispecific antibody) heavy 1: QVQLVESGGGLVQAGGSLRLSCAASGRTFSSYTMGWFRQAPGKEREFVAAISWSAGRTYYADSVKGRFTISRDNAKNTVYLQMNSLKPEDTAVYFCAAEEAPDWAPIDCSGYGCLSLYDYWGQGTQVTVSSGGGSEVQLVESGGGLVQAGGSLRLSCAASGRTFRNYHMGWFRQAPGQEREFVAAISSSGGKTSYPDSVNGRFTISRDNAKNTVYLQMNNLKVEDTAVYYCAADPRYWVAAGGSEPENVEVWGQGTLVTVSSDKTHTCPPCPAPEAAGGPSVFLFPPKPKDTLMISRTPEVTCVVVDVSHEDPEVKFNWYVDGVEVHNAKTKPREEQYNSTYRVVSVLTVLHQDWLNGKEYKCKVSNKALPAPIEKTISKAKGQPREPQVCTLPPSRDELTKNQVSLSCAVKGFYPSDIAVEWESNGQPENNYKTTPPVLDSDGSFFLVSKLTVDKSRWQQGNVFSCSVMHEALHNHYTQKSLSLSPG heavy 2: not shown | 0.19 Abs | 1.6 fold |
| DGL168 (bispecific antibody) heavy 1: QVQLVESGGGLVQAGGSLRLSCAASGRTFSSYNMGWFRQAPGKERESVAAISWSGGSSYYADSVKGRFTISRDNAKPTVYLQMNSLKPEDTAVYYCAADRDSEEWDGSSWFFKSDYWGQGTQVTVSSGGGSQVQLVESGGGLVQTGGPLRLSCAASGGTFSRYTMGWFRQAPGKEREYVAAISWRGSSIYYADAVKGRFTISRDSAKSTVYLQMNNLNSDDTAVYYCAADRTDLPRNAGEYGYWGQGTQVTVSSDKTHTCPPCPAPEAAGGPSVFLFPPKPKDTLMISRTPEVTCVVVDVSHEDPEVKFNWYVDGVEVHNAKTKPREEQYNSTYRVVSVLTVLHQDWLNGKEYKCKVSNKALPAPIEKTISKAKGQPREPQVCTLPPSRDELTKNQVSLSCAVKGFYPSDIAVEWESNGQPENNYKTTPPVLDSDGSFFLVSKLTVDKSRWQQGNVFSCSVMHEALHNHYTQKSLSLSPG heavy 2: not shown | 0.62 Abs | 5.1 fold |
